These results are taken from article PMC10052374, “Jasmonate activates a CsMPK6-CsMYC2 module that regulates the expression of β-citraurin biosynthetic genes and fruit coloration in orange (Citrus sinensis)”.

In general, Kd refers to a measure of binding affinity in units of concentration.

One series addresses CsMYC2-His (Citrus sinensis (Newhall orange), UniProt V4SX11 1-519). The series is described as follows: BLI; BLI: PBS, 100 nM biotin probe on SA sensors, CsMYC2-His 62.5-1000 nM, 1:1 fit. DNA pull-down: probe bound to beads in 10 mM Tris-HCl pH 7.5, 1 mM EDTA, 1 M NaCl, 0.1% Tween-20 at RT, then protein 1 h on ice. EMSA: as in Yue et al. 2019, buffer not given. Conditions: protein: recombinant; tags: His (pET30A); chain copies: 2; label: 3' biotin. A general note: In BLI a coated tip is dipped into the sample, and binding shifts an interference pattern.

The next series has as its target CsMYC2-MBP (Citrus sinensis (Newhall orange), UniProt V4SX11 1-519). The series is described as follows: EMSA; BLI: PBS, 100 nM biotin probe on SA sensors, CsMYC2-His 62.5-1000 nM, 1:1 fit. DNA pull-down: probe bound to beads in 10 mM Tris-HCl pH 7.5, 1 mM EDTA, 1 M NaCl, 0.1% Tween-20 at RT, then protein 1 h on ice. EMSA: as in Yue et al. 2019, buffer not given. The note with it: protein: recombinant; tags: MBP (pMAL-C2X); chain copies: 2; label: 3' biotin. Background: A gel shift assay detects complexes by their altered migration in electrophoresis.

CsMYC2-MBP, sequence (V4SX11 entry or part of it): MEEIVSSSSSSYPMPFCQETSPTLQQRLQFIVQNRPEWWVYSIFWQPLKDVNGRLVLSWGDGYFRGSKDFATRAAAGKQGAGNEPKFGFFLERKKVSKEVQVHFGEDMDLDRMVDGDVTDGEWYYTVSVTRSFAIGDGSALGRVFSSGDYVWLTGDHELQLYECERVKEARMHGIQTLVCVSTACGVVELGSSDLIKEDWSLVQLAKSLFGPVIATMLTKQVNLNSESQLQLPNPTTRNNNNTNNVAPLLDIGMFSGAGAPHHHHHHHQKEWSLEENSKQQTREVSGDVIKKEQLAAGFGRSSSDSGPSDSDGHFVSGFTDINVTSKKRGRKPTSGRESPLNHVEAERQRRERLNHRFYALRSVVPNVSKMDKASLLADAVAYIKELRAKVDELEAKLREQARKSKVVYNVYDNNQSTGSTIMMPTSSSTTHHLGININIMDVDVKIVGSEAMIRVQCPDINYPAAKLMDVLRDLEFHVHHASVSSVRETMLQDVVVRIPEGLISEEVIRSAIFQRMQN
CsMYC2-His, sequence (V4SX11 entry or part of it): as above

B1: CsCCD4b-probe (dsDNA)
DNA 1: GTACCATACAACTGTGGCACCATAGCTGGATC
DNA 2: GATCCAGCTATGGTGCCACAGTTGTATGGTAC
Consider B1, for which, in the series with CsMYC2-His, the dissociation constant (Kd) worked out at 58 nM.

B2: CsLCYb-probe (dsDNA)
DNA 1: CGACAGTTGGACCACTAGCTTCGTGACCGTTGT
DNA 2: ACAACGGTCACGAAGCTAGTGGTCCAACTGTCG
As to B2, the binding result in the series with CsMYC2-MBP is on record as “binds”.

B3: CsPSY-probe (dsDNA)
DNA 1: AAAACTTCAATTGATACTCTTCCACTAATTCT
DNA 2: AGAATTAGTGGAAGAGTATCAATTGAAGTTTT
For B3, the binding result with CsMYC2-MBP was “binds”.

B4: CsMPK6-probe (dsDNA)
DNA 1: AGCTCTATGTAACAACTGGGATCTATTTGAAA
DNA 2: TTTCAAATAGATCCCAGTTGTTACATAGAGCT
Regarding B4, the binding result in the series with CsMYC2-MBP is “binds”.

B5: CsBCH-probe (dsDNA)
DNA 1: AATTTCGAATCTAACAAATGTTTCGTTGATAT
DNA 2: ATATCAACGAAACATTTGTTAGATTCGAAATT
On to B5, for which the binding result with CsMYC2-MBP is “binds”.
